Data from a protein production outcome set (Wang et al. 2014).

Test: label from the status in PepcDB records
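Note: failed if final PepcDB status was selected cloned or expressed and not failed if soluble or beyond.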

## MEILTCIKQVPGTTSVEVDETTGVLKRDGVDSKMNPYDLYALETALRIKEDKKANLKVLSMGPPQAKKVIEESFMMGADEGALISDRRFGGADVLATSYTISQGIKKMGKVDLIICGKQTTDGDTAQVGPEVAEFLDIPHVTNVTKLIEVKDESIVVEIDMPNDLQVCEIEYPCLITVEKDIFQPRLPSFKLKLNTKDREIPVYSLDDFEDKNENNYGLNGSPTQVVRIFPPKPNTDKNIVRGNADELSFALVNKLEELKLV
  protein production: not failed

## MEILYIKGDATAPIGSGVKVITHICNDIGGWGKGFVLALSKKWKMPEEAYRQWYKSQEEFTLGAVQFVNVENKLYVANMIGQHGIYKDSKGLPPIRYDAVRQCLKEVALFTIAHKASVHMPRIGCGLAGGKWELMEQIIKEELITKEIAVTVYDL
  protein production: not failed

## MEIMKKQNSQINEINKDEIFVVVPAFNEEKMIGETLKNLKKEGYKNIVVVDDGSMDKTSEIAKKEGVIVCRHILNRGLGGALGTGIKCALLYKPKIIITFDADGQHHPKDVEKVVKPVLFEGYDMAIGSRMMDKNELKNMPLVKRIGNFGLNFITYLMGGYFVTDSQSGLRAFSYEAAKKIIGDLKSDRYEVSSEFIILAKKHGLKLKEVPIKTIYTEYSMSRGTNVITGFKILFKLIMQKIF
  protein production: failed

## MEIQIVTGFLGAGKTTFLNRYLPLLSGKTVVIENEFGDIGIDGDRIQEDIPVREIFAGCICCSLAMDFRKGIKEIAENFHPDRILIEPSGVGRLTDIVKACQMAREREKVSLQITKLIAIVDMASFEEYIEGFGAFYQDQIERAGLLLLSHVEAENKAQKEIIIGRLKELNPDAILYDGDWRQLENEELLKLLEEAPDYDEDARRDAAFAALPADKVFSSVSFMDLPQMRIEDLEAIMKALEKEEYGYILRAKGWIETMEKGLVHFDFTPTVSKYREEKNPAGTGGEAVVIGCGLNQAALEMLFRRKNILEHHHHHH
  protein production: not failed

## MEISEYFKDWMELYKKNAIDEMTYKGYEQTLKYLKTYMPNVLISEITASSYQRALNKFAETHAKASTKGFHTRVRASIQPLIEEGRLQKDFTTRAVVKGLEHHHHHH
  protein production: not failed

## MEITKIRGTLPSITYWNSTTPIKYTYNGTTYTGYMGNYWSDYNGTDSDGDGIGDTSYTVPNDLGTDNHPLMQPFENYNLEHHHHHH
  protein production: failed

## MEITPKRYWRRWRGYEKLDGSSETTSGRRKGKRVKMDPTRKKRFWRIKIVPKLRILKTASPKKFLVWLRDSYVKMMMRLANSRVVGSSGYGGSGFGSGQMKEYDEKMLVEIYKSILMVQAQGNLVHRDTPNNNLKLPSEPAVVSVVSSVVTC
  protein production: failed

## MEKALTKVTSFKVGSSWISKKAKEELSNITNDLTTFSSTVEEKAKWIFNKLKGKPLKSLPDLLKEYNLPPGLFPQNIICYEFDETKNKLTVFFSSPCEVTFKDGSAIRYATRVKGILLRGKLMGVEGMKTKVLVWVKVTTISVESSKSDKLWFTAGVKKSRSKDVYDTPHDAIKVIGEF
  protein production: failed

## MEKASSPEKWLAKVSVTLTKAKPDEIWPLFTDFFNLHKWLPTLATCHGVHGNNGEQGCIRFCSGFSIGSNGVDSAARWSKEKLVAVNPVERVMRYEIVESNTGFESYVSTVKILPRGEDGCVIEWSFTVDPVRGLSLENLVKKYEKALEIITKNMEEDALRRRESSS
  protein production: failed

## MEKEKKEGWAHPEAAEKYAQTADIIIPERKEILSIISKAAIDLGPMDPKIIDLGCGLGDVTAEILKLKLQADVLMIDFSDEMIRRSSERFRDNKNITVVKRDLNQGILDITEDRGFDAVVSCFSIHHVEFENRIKLYSDIRKLLKEQGLFINGDLFREDSPAIDQWEFNNRIFSLMIQLKEKLGQEWTFEELKLNRLENSQKMGDKPGTIWETFHDMKAAGFRHVDCLWKSRNLAIMAATKP
  protein production: failed

## MEKFKYSLLVLFGACSYGILSTIFKLGFINGFSAHQLLGGQYVFGWIGLFLLVLFFSRHKVTKKQFFSLLTVGTTMSMTGIFYAISVEELPASIAVVLLFQFTWIGVIIEAIANRTFPSRDKIISILILFAGTLFAGGVFEGLGQSFSTKGIIFGLLAAVSFSFYVFASGRVATDVPPYTKSFLMTTSATLIVCLFFPPTFLTDGALQAGLWKYAFFLGLFGVVVPVICFSIGVPKVGTGLGTILGAAELPTAIIASITLVHEVVTFMQWIGIIFILVGIFIPQLLTARKERKQNRVHSA
  protein production: failed

## MEKFTLSRIINIIMFLYILSIYLFTFRDGLNSISNFLALTFIAAIWSNVLLTRKKIVFNKFLFIYFLFILVCFVSVFFAINQSIAVSKIKTIILIYFLMISLVNYIDTFEKLRSFLLSFVYSGFITGVYILASSDFSQVTRYGSELGNVNSIGMIIGISSIFCFYFIIEEKKYLLYTPIMLINIFVVFLTGSRKALLFVVLTIIAILLIQQKAGIKGKIKALIGILVTLVISLYVIFNVELLYTIIGVRMEHLFSYILGKGANEGSINIRANMIDMGLDWFQERPITGYGIDNFRSLYGIEAIGGEFTYSHNNLVELLVGIGIIGTFLFYLTHFIVLKGLYKESKKNQKSALCYSFIAIIGIYIILSVGLIYYYDKHISMILAIGSIIYKIGKPSGEELTQKTLE
  protein production: failed

## MEKKPWEEDISIEEFKKSLNKDKITNLIIKRRWNKGKSTYHLSFNGDFEVVTKKPSTKYVTHKQLDQKLKEFKQDLMVELHDTFATKADLRDSEARINQKLEALVQVVLLHGEQINKLTQIVEKQGEQIRELQVEQKAQRQEFNARMDRLENLLVESIESTNKRFDSIEGRLDSMDSRLDSMENRLDSIEGRLDSVEGRLDSVEGRLDSMENRLDSMETRLDKIDPPK
  protein production: failed

## MEKKVGTDRVKRGMAQMQKGGVIMDVVNAEQAKIAEEAGAVAVMALERVPSDIRAAGGVARMADPRIVEEVMNAVSIPVMAKARIGHITEARVLEAMGVDYIDESEVLTPADDEFHLLKSDFTVPFVCGCRDIGEALRRIGEGAAMLRTKGEPGTGNIVEAVRHMRQVNGQIRQIASMTDDELMVAAKNFGAPYELVKEIKTLGKLPVVNFAAGGVATPADAALMMELGADGVFVGSGIFKSDNPAKFASAIVQATTYYTDYELIGKLSKELGSPMKGIEMSRLNPEDRMQDRSF
  protein production: failed

## MEKLNFGIPEWAFEFHGHKCPYMPMGYRAGSYALKIAGLEKEKDHRTYLLSEMSPEDMNGCFNDGAQAATGCTYGKGLFSLLGYGKLALILYRPGRKAIRVHVRNSFMDELSTRASDFFRYRKQGYEPSEIPAGAIDPVLEWISSLEDEEIFEYREIDGFTFEPVKKNGAKVRCDVCGEYTYEADAKLLNGKPVCKPDYYGKK
  protein production: not failed

## MEKNVSQVTAQEETALKARGYNEDLLPSSPKQRTMGARNFFTLWMGSIHNIPNYAAVGGFIFLGLSPLQVMLAVVLSSFIVATFMNLNGVAGSKYGIPFAMHLQSTYGSLGAKLPGFLRGCVAAIAWFGLQTFTGSLALLIILGKFWPNFLEIGGSFQFFGLRLPELMAFTLFWLLNVAIGFGGSKILNRFTAILSPLIYVVIIGLTIWAIRAGGGLTPILSYQVSGAIRSVNPLVAYLIIFNSVVAVWSAPGASVADFTKNARSTRAQVVGQTTGLVVGYGIFAFSSVVILLGGSLYFGIQEWNILNIIDRLDNVAVVVLAMSVFLLTTISTNATGNIIPAGYQLAALFPKKMTYKKGVMIASVISFLIMPWKLMENADSIFIFLNAIGAVLGPVAGVMIANYYFVQKQQIDLNALYVDKHKKEEANPFYGLNKPAYVATILALVLSLSGQFIPQVKIIADISWFVGFATGFVLYLVLKKWTWDSKKVKETAYQEGK
  protein production: failed

## MEKPRSIEETPSSEPMEEEEDDDLELFGGYDSFRSYNSSVGSESSSYLEESSEAENEDREAGELPTSPLHLLSPGTPRSLDGSGSEPAVCEMCGIVGTREAFFSKTKRFCSVSCSRSYSSNSKKASILARLQGKPPTKKAKVLHKAAWSAKIGAFLHSQGTGQLADGTPTGQDALVLGFDWGKFLKDHSYKAAPVSCFKHVPLYDQWEDVMKGMKVEVLNSDAVLPSRVYWIASVIQTAGYRVLLRYEGFENDASHDFWCNLGTVDVHPIGWCAINSKILVPPRTIHAKFTDWKGYLMKRLVGSRTLPVDFHIKMVESMKYPFRQGMRLEVVDKSQVSRTRMAVVDTVIGGRLRLLYEDGDSDDDFWCHMWSPLIHPVGWSRRVGHGIKMSERRSDMAHHPTFRKIYCDAVPYLFKKVRAVYTEGGWFEEGMKLEAIDPLNLGNICVATVCKVLLDGYLMICVDGGPSTDGLDWFCYHASSHAIFPATFCQKNDIELTPPKGYEAQTFNWENYLEKTKSKAAPSRLFNMDCPNHGFKVGMKLEAVDLMEPRLICVATVKRVVHRLLSIHFDGWDSEYDQWVDCESPDIYPVGWCELTGYQLQPPVAAEPATPLKAKEATKKKKKQFGKKRKRIPPTKTRPLRQGSKKPLLEDDPQGARKISSEPVPGEIIAVRVKEEHLDVASPDKASSPELPVSVENIKQETDD
  protein production: failed

## MEKQEEEDVKRRQRQKAATSLGFLHWEELKNHGDLSKVALNIALTTLVDDASTGFCIMNLVNLIVLRESSQGYLLTYEGKLASLASATYVKAFISLWVLEDAERHAWSFRTFSLTFPLDDPILDTFLELTGVTEAGEFVYAPTTLQSPFHALYFDPQRNSFRRVIYEGLADDEFRRRNRLGYERHHILPNHIESLISL
  protein production: failed

## MEKTLETVPLERKKREKEQFRKLFIGGLSFETTEESLRNYYEQWGKLTDCVVMRDPASKRSRGFGFVTFSSMAEVDAAMAARPHSIDGRVVEPKRAVAREESG
  protein production: not failed

## MEKVKKIVLIGASGFVGSALLNEALNRGFEVTAVVRHPEKIKIENEHLKVKKADVSSLDEVCEVCKGADAVISAFNPGWNNPDIYDETIKVYLTIIDGVKKAGVNRFLMVGGAGSLFIAPGLRLMDSGEVPENILPGVKALGEFYLNFLMKEKEIDWVFFSPAADMRPGVRTGRYRLGKDDMIVDIVGNSHISVEDYAAAMIDELEHPKHHQERFTIGYLEHHHHHH
  protein production: failed

## MEKYLRSGTMFVVLAFILWGLTPLYYQYLSGGNLAQILIYRVFWSIPLLLAVRLLFRQRTRFHDAWKDKKSFFFCMIAGLLMIVSWSSFIYALTHHLVLDASLGYFINPLFVIALGCIFLKEKLSLFQAIAVFSGVCGLTFQIIMLRHFPALALTMGLSFALYGLARKFIHYDVMTSITIETLWALPVSLLIFLFSDSGPIISANTPFFLYVMTAPVTIIPLVLFAIALNHTSLIVTGLAQYIEPSLQFLLAIMIFGEHINYAELLCFCAVWFGLFLCISENLYSHYLRARLKPVFGRVQRFFR
  protein production: failed

## MELDAFNKGAIPLINHPDCSALGYQVIQELGRNQEEGRITYLAHHHQSKQQVVIKEFSFAHTYTDWCDFTAYESEAKILQKLNHPRIPRYLDSFATQTGFYLVQEYKHALPLSSKRSFQPEEIKQIAVSVLEILVYLQQRIDPIIHRDIKPENILVDEQLNAYLVDFGLARVQDTKIALTSLLTGTPGFIPPEEQLGYSLSLASDLYSVGATLICLLANIRSVDIGKLIDSKGYFDFQKLDSQIDLRFRSWLMGMVEPKWQYRYTNAADALAALQPIQVTGNATAMEILATVIKLKYQTTVLGLAIIGVLAVAGATLILSQQGGAAQQLQEARK
  protein production: failed

## MELEQKLNLLNDLIVREIVNPLPPPYKVGVDLGTADIVLVVTDQEGIPVAGALKWASVVKDGLVVDYIGAIQIVRELKAKVERLLGSELFQAATAIPPGTVGRNAEACGHVVAGAGLELVTLVDEPVAAARALGINDGIVVDIGGGTTGIAVIEKGKITATFDEPTGGTHLSLVLAGSYKIPFEEAETIKKDFSRHREIMPVVRPVIEKMALIVKEVIKNYDQTLPVYVVGGTAYLTGFSEEFSRFLGKEVQVPIHPLLVTPLGIALFG
  protein production: not failed
